Tests used:
Assay in all cases: ELISA on the coated C5a protein, antibody titrated, OD410
C5a-K20A = molecular target: T1, C5a-K20A
T1 single chain: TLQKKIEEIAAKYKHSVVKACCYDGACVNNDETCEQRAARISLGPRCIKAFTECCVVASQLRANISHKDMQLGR

C5a-Y23A = molecular target: T2, C5a-Y23A
T2 single chain: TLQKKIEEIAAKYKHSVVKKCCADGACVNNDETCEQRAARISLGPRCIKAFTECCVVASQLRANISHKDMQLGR

C5a-C27A = molecular target: T3, C5a-C27A
T3 single chain: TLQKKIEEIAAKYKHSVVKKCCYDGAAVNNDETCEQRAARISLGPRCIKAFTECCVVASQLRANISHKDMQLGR

C5a-V28A = molecular target: T4, C5a-V28A
T4 single chain: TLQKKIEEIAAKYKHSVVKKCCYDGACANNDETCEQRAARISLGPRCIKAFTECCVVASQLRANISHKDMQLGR

C5a-V28F = molecular target: T5, C5a-V28F
T5 single chain: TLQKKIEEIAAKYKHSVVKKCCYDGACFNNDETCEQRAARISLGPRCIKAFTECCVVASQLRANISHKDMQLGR

C5a-V28R = molecular target: T6, C5a-V28R
T6 single chain: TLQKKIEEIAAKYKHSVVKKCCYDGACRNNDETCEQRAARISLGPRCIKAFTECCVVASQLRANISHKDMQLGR

C5a-N29A = molecular target: T7, C5a-N29A
T7 single chain: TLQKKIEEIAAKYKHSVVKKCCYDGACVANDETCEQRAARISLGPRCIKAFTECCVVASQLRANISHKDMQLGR

C5a-Y13A = molecular target: T8, C5a-Y13A
T8 single chain: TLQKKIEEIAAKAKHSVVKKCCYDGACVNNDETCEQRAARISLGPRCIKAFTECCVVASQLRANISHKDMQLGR

C5a-A63R = molecular target: T9, C5a-A63R
T9 single chain: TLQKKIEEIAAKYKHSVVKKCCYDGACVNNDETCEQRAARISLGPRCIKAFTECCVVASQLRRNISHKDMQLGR

C5a-S66R = molecular target: T10, C5a-S66R
T10 single chain: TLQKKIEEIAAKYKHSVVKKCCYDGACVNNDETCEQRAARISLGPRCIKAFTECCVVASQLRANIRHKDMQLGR

C5a-H67A = molecular target: T11, C5a-H67A
T11 single chain: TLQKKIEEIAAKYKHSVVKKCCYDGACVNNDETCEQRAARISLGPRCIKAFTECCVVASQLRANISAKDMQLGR

C5a-K68A = molecular target: T12, C5a-K68A
T12 single chain: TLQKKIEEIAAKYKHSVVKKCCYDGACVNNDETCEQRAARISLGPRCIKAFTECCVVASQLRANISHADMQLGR

C5a-L72A = molecular target: T13, C5a-L72A
T13 single chain: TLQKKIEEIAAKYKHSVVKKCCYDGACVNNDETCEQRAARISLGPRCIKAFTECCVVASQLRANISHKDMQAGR

Measured: binding result

B1: Cab42-IgG1 (antibody, V domains shown)
VH: EMQLVESGGGLVQPGGSLRLSCAASGFTFSDYYMQWVRQAPGKGPEWVGLIRNKAVGETTQYAASVKGRFTISRDDSKNSVYLQMNSLKTEDTAVYYCVSRAGPPGLSWGQGVLVTVSS
VL: DIVMTQSPLSLPVTPGEPASISCRSSQSLLASDAYNYIDWYLQKPGQSPQLLIYGGSNRASGVPDRFSGSGSGTDFTLKISRVEAEDVGVYFCLQHRALPPTFGQGTKLEIK
notes: Full-length human IgG1; It was biotinylated in the peptide-Fc ELISA
binds: all assays above

Reference: patent US20230257454A1 (STAIDSON BEIJING BIOPHARMACEUTICALS, published 2023)
